# Assay results published in patent EP4714976A1 (Sunshine Lake Pharma Co., Ltd., dated 2026).
# Numbering of substitutions follows the chain as printed.
# T1: FGFR4 (acro) (UniProt P22455 22-369)
# T1 sequence (looked up): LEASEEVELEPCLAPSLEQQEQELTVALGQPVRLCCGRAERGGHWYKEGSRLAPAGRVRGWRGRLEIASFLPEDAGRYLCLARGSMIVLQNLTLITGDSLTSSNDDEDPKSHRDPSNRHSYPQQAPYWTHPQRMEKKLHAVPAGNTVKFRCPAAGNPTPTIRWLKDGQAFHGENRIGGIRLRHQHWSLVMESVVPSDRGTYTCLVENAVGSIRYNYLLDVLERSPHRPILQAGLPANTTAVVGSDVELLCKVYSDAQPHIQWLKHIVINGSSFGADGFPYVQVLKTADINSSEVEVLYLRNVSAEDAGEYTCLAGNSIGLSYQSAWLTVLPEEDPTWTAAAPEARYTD
# B1: 3D7 scFv-Fc (Fc fusion)
# chain: QVQLQQSGAELVKPGASVKMSCKASGYTFSFYNMHWVKRTPGRGLEWIGLIYPDNGDTSYNQKFKGKATLTADTSSSTAYMQLSSLTSEDSAVYYCARGGLDYWGQGTSLTVSSGGGGSGGGGSGGGGSEIVLTQSPASLAVSLGQRATISCKASQSVDYDGDSYMNWYQQKPGQPPKLLIYGISNRFSGVPDRFSGSGSGTDFTLKISTIKPEDLGMYYCLQGTHQPYTFGGGTKLEIKESKYGPPCPPCPAPEAAGGPSVFLFPPKPKDTLMISRTPEVTCVVVDVSQEDPEVQFNWYVDGVEVHNAKTKPREEQFNSTYRVVSVLTVLHQDWLNGKEYKCKVSNKGLPSSIEKTISKAKGQPREPQVYTLPPSQEEMTKNQVSLTCLVKGFYPSDIAVEWESNGQPENNYKTTPPVLDSDGSFFLYSKLTVDKSRWQEGNVFSCSVMHEALHNHYTQKSLSLSLG
# notes: scFv-Fc dimer
# B2: 1D7 scFv-Fc (Fc fusion)
# chain: QIQLQQSGAELVKPGASVKMSCKASGYTFRYYNMHWVKRTPGQGLEWIGLIYPDNGDTSYNQKFKGKATLTADTSSSTAYMQLSSLTSEDSAVYYCARGGLDYWGQGTSLTVSSGGGGSGGGGSGGGGSDIQMTQSPSSMSASLGDRITITCQATQDIVKNLNWYQQKPGKPPSFLIYYATELAEGVPSRFSGSGSGSDYSLTISNLESEDFADYYCLQFYEFPLTFGAGTKLELKESKYGPPCPPCPAPEAAGGPSVFLFPPKPKDTLMISRTPEVTCVVVDVSQEDPEVQFNWYVDGVEVHNAKTKPREEQFNSTYRVVSVLTVLHQDWLNGKEYKCKVSNKGLPSSIEKTISKAKGQPREPQVYTLPPSQEEMTKNQVSLTCLVKGFYPSDIAVEWESNGQPENNYKTTPPVLDSDGSFFLYSKLTVDKSRWQEGNVFSCSVMHEALHNHYTQKSLSLSLG
# notes: scFv-Fc dimer
# B3: 3B7 scFv-Fc (Fc fusion)
# chain: EVQLQQSGAELVKPGASVKMSCKASGYTFRYYNMHWVKRTPGQGLEWIGLIYPDNGDTSYNQKFKGKATLTADTSSSTAYMQLSSLTSEDSAVYYCARGGFDYWGQGTTLTVSSGGGGSGGGGSGGGGSDIQMTQSPASLSASVGETVTITCGASENIYGALNWYQRKQGKSPQLLIYGATNLADGMSSRFSGSGSGRQYSLKISSLHPDDVATYYCQNVLSTPYTFGGGTKLELKESKYGPPCPPCPAPEAAGGPSVFLFPPKPKDTLMISRTPEVTCVVVDVSQEDPEVQFNWYVDGVEVHNAKTKPREEQFNSTYRVVSVLTVLHQDWLNGKEYKCKVSNKGLPSSIEKTISKAKGQPREPQVYTLPPSQEEMTKNQVSLTCLVKGFYPSDIAVEWESNGQPENNYKTTPPVLDSDGSFFLYSKLTVDKSRWQEGNVFSCSVMHEALHNHYTQKSLSLSLG
# notes: scFv-Fc dimer
# B4: 1A3 scFv-Fc (Fc fusion)
# chain: QVQLQQPGAELVKPGASVKMSCKASGYTFASYNLHWVKQTPGQGLEWIGLIYPENGDTSYNQKFKGKATLTADKSSSTAYIQLSSLTSEDSAVYFCARGGFDYWGQGTTLTVSQGGGGSGGGGSGGGGSDIQMTQSPASLSASVGETVTITCGASENIYGALNWYQRKQGKSPQLLIYGATNLADGMSSRFSGSGSGRQYSLKISSLHPDDVATYYCQNVLSTPYTFGGGTKLEIKESKYGPPCPPCPAPEAAGGPSVFLFPPKPKDTLMISRTPEVTCVVVDVSQEDPEVQFNWYVDGVEVHNAKTKPREEQFNSTYRVVSVLTVLHQDWLNGKEYKCKVSNKGLPSSIEKTISKAKGQPREPQVYTLPPSQEEMTKNQVSLTCLVKGFYPSDIAVEWESNGQPENNYKTTPPVLDSDGSFFLYSKLTVDKSRWQEGNVFSCSVMHEALHNHYTQKSLSLSLG
# notes: scFv-Fc dimer
# B5: 3F10 scFv-Fc (Fc fusion)
# chain: B3 chain with R30S, Y31F, M34I, K38R, R39Q, G66A, T74K, I131V, Q132L, L235I
# notes: scFv-Fc dimer
# B6: 3C9 scFv-Fc (Fc fusion)
# chain: B3 chain with V2I, T28I, F101L, T134I, L235I
# notes: scFv-Fc dimer
# B7: 3F5 scFv-Fc (Fc fusion)
# chain: B3 chain with V2I, F101L, Q132V, M133L, L235I
# notes: scFv-Fc dimer
# B8: 3G10 scFv-Fc (Fc fusion)
# chain: EVQLQQSGPELVKPGASVKMSCKASGYTFATYNMHWVKQTTGQGLEWIGAIYPDNGDTFYNRKFKDKATLTADKSSTTAYMQLSSLTSEDSAVYYCARGDFAYWGQGTLVTVSAGGGGSGGGGSGGGGSDVLMTQSPASLSASVGETVTITCGASENIYGALNWYQRKQGKSPQLLIYGATNLADGMSSRFSGSGSGRQYSLKISSLHPDDVATYYCQNVLSTPYTFGGGTKLEMKESKYGPPCPPCPAPEAAGGPSVFLFPPKPKDTLMISRTPEVTCVVVDVSQEDPEVQFNWYVDGVEVHNAKTKPREEQFNSTYRVVSVLTVLHQDWLNGKEYKCKVSNKGLPSSIEKTISKAKGQPREPQVYTLPPSQEEMTKNQVSLTCLVKGFYPSDIAVEWESNGQPENNYKTTPPVLDSDGSFFLYSKLTVDKSRWQEGNVFSCSVMHEALHNHYTQKSLSLSLG
# notes: scFv-Fc dimer
# Target: T2, FGFR2b on KATO III cells (human, UniProt P21802-3 22-822)
# T2 construct: whole, on cells; also called KATO III cells that overexpress FGFR2b
# T2 sequence (P21802 other isoform, or with tags, fused parts or gaps): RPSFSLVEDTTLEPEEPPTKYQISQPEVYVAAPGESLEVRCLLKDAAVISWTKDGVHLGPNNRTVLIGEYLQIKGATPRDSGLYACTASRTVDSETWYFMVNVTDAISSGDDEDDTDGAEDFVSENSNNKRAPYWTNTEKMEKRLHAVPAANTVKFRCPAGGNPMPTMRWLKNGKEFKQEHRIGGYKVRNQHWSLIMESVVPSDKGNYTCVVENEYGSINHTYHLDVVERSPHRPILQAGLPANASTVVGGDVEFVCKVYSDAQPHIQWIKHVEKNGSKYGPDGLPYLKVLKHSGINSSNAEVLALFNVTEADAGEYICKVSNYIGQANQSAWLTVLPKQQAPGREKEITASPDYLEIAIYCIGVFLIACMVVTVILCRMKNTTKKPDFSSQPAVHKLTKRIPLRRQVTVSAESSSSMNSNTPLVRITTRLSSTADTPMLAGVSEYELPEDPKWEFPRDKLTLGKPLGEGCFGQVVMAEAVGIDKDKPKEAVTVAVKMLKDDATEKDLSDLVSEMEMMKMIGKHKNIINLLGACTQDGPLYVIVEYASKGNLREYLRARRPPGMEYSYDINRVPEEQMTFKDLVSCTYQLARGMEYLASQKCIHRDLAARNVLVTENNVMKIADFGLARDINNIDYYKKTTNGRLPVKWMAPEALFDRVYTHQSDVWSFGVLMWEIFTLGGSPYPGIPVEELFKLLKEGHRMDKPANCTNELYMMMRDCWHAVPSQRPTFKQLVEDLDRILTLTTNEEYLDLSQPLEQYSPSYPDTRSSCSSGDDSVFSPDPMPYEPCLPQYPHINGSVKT
# Test: flow cytometry, KATO III cells
row,Binder,EC50 [µg/mL]
1,B1,0.259
2,B2,0.167
3,B3,0.117
4,B4,0.0656
5,B5,0.159
6,B6,0.253
7,B7,0.105
8,B8,0.149

# Target: T3, human FGFR2b (Kaixia Biotechnology, catalog number FGR-HM1BB) (human, UniProt P21802-3 22-378)
# T3 construct: extracellular domain; bought; also called hFGFR2b; human FGFR2b protein
# T3 sequence (P21802 other isoform, or with tags, fused parts or gaps): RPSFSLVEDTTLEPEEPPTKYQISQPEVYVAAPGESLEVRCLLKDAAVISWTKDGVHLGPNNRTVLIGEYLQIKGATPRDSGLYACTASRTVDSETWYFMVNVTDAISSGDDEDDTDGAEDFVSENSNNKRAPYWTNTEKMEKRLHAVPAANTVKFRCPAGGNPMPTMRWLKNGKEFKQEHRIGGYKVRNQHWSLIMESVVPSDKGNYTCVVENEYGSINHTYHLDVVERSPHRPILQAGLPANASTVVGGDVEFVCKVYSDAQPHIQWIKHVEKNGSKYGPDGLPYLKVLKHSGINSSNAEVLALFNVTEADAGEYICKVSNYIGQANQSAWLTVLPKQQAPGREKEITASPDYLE
# Test: ELISA, FGFR2b coated at 1 µg/ml
row,Binder,EC50 [µg/mL]
1,B1,0.0369
2,B2,0.0154
3,B3,0.0147
4,B4,0.00818
5,B5,0.00818
6,B6,0.0147
7,B7,0.0159
8,B8,0.0276

# Target: T4, recombinant cynomolgus monkey FGFR2b (cynomolgus monkey)
# T4 construct: extracellular domain; bought; also called cynomolgus macaque FGFR2b
# Test: ELISA, antibody 1ug/mL
row,Binder,OD (450 nm) value
1,B1,3.3
2,B2,3.17
3,B3,3.12
4,B4,3.27
5,B5,3.22
6,B6,3.25
7,B7,3.17
8,B8,3.12

# Target: T1, FGFR4 (acro)
# Test: ELISA, antibody 10 µg/mL
row,Binder,OD (450 nm) value
1,B2,0.156
2,B3,0.116
3,B4,0.099
4,B5,0.123
5,B6,0.139
6,B7,0.145

# Target: T5, FGFR2c (acro) (UniProt P21802 22-377)
# T5 sequence (P21802 22-377): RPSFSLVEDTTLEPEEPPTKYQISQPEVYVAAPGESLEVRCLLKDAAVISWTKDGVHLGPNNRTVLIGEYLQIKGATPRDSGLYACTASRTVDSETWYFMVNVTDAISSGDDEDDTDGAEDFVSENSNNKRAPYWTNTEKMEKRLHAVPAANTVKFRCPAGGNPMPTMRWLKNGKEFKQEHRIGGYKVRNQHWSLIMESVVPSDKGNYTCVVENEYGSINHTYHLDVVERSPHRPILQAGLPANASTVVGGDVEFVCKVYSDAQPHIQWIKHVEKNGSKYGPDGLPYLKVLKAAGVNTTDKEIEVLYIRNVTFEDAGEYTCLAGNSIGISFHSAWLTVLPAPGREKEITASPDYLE
# Test: ELISA
row,Binder,binding result
1,B1,no binding (tested: 10 µg/mL)
2,B2,no binding (tested: 10 µg/mL)
3,B3,no binding (tested: 10 µg/mL)
4,B5,no binding (tested: 10 µg/mL)
5,B6,no binding (tested: 10 µg/mL)
6,B7,no binding (tested: 10 µg/mL)
7,B8,no binding (tested: 10 µg/mL)

# Target: T1, FGFR4 (acro)
# Test: ELISA
row,Binder,binding result
1,B2,no binding (tested: 10 µg/mL)
2,B3,no binding (tested: 10 µg/mL)
3,B4,no binding (tested: 10 µg/mL)
4,B5,no binding (tested: 10 µg/mL)
5,B6,no binding (tested: 10 µg/mL)
6,B7,no binding (tested: 10 µg/mL)

# Target: T3, human FGFR2b (Kaixia Biotechnology, …)
# Test: BLI, antibody on AHC2 sensor
Binder,Kd [nM],koff [s⁻¹],kon [M⁻¹ s⁻¹]
B1,8.58,0.00203,236000
B2,4.51,0.00208,460000
B3,7.6,0.00203,267000
B4,12.2,0.00477,392000
B5,7.62,0.00231,303000
B6,2.7,0.000954,353000
B7,5.1,0.00143,281000
B8,6.25,0.00199,318000

# Target: T5, FGFR2c (acro)
# Test: ELISA, antibody 10 µg/mL
row,Binder,OD (450 nm) value
1,B1,0.127
2,B2,0.091
3,B3,0.089
4,B5,0.106
5,B6,0.118
6,B7,0.111
7,B8,0.096
